± gives the uncertainty stated by the source.

The record followed here is the supplement of paper PMC7877785.

The data set is described as follows: self-splicing fitness, log relative to wild type (ln ratio); higher = more splicing; Tetrahymena group I intron in knt gene, E. coli kanamycin selection, DiMSum; sequences stand for … in CUCUCU…GGAGGGAAAAGUUAUCAGGCAUGCACCUGGUAGCUAGUCUUUAAACCAAUAGAUUGCAUCGGUUUAAAAGGCAAGACCGUCAAAUUGCGGGAAAGGGGUCAACAGCCGUUCAGUACCAAGUCUCAGGGGAAACUUUGAGAUGGCCUUGCAAAGGGUAUGGUAAUAAGCUGACGGACAUGGUCCUAACCACGCAGCCAAGUCCUAAGUCAACAGAUCUUCUGUUGAUAUGGAUGCAGUUCACAGACUAAAUGUCGGUCGGGGAAGAUGUAUUCUUCUCAUAAGAUAUAGUCGGACCUCUCCUUAAUGGGAGCUAGCGGAUGAAGUGAUGCAACACUGGAGCCGCUGGGAACUAAUUUGUAUGCGAAAGUAUAUUGAUUAGUUUUGGAGUACUCGUGGUCG
The procedure, abridged: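 Library with all eight P1ex-region intron nucleotides randomised, intron inside the knt kanamycin-resistance gene on pET-22b(+), in E. coli BL21(DE3). Cells grew overnight at 37°C or 30°C on LB agar with or without 25 μg/mL kanamycin (plus 100 μg/mL carbenicillin, 50 μM IPTG, 0.2% rhamnose), in six replicate transformations. Pooled colonies were amplicon-sequenced on Illumina HiSeq 2500. DiMSum fitness is the error-weighted combination of wild-type-normalised replicate fold changes, kanamycin versus none.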

As to AACAAGCAAUAUUACGCCAG, the “self-splicing fitness (ln)” value is -2.62 ± 0.15 (30 °C) and -1.24 ± 0.15 (37 °C).
On to CACUAGCAAUAUUACGGGAG, for which the “self-splicing fitness (ln)” value (30 °C) was -1.54 ± 0.073 and the “self-splicing fitness (ln)” value (37 °C) was -0.152 ± 0.076.
With UAUAAGCAAUAUUACGGCGC, the “self-splicing fitness (ln)” value (30 °C) is -1.25 ± 0.11 and the “self-splicing fitness (ln)” value (37 °C) was -1.35 ± 0.14.
As for CCCCAGCAAUAUUACGUGUG, the “self-splicing fitness (ln)” value was -2.66 ± 0.084 (30 °C) and -2.5 ± 0.11 (37 °C).
In the same order, the values of GUCUAGCAAUAUUACGUGGU are -2.5 ± 0.09 and -0.907 ± 0.078.
On the same counts, the results for UGUCAGCAAUAUUACGCGAU are -3.41 ± 0.4 and -2.2 ± 0.34.
On to ACCAAGCAAUAUUACGUCCA, for which the “self-splicing fitness (ln)” value was -2.01 ± 0.096 (30 °C) and -1.3 ± 0.1 (37 °C).
In the same order, the values of CAGAAGCAAUAUUACGUCUA are -0.102 ± 0.07 and 0.782 ± 0.11.
On the same counts, the results for AGCCAGCAAUAUUACGCUGA are -2.75 ± 0.16 and -1.87 ± 0.15.
In the same order, the values of CCCAAGCAAUAUUACGGGCA are -3.96 ± 0.18 and -1.82 ± 0.11.
AGCUAGCAAUAUUACGGGAC: the “self-splicing fitness (ln)” value runs as follows: (30 °C) -3.37 ± 0.23; (37 °C) -1.84 ± 0.24.
In the same order, the values of AACCAGCAAUAUUACGAAUU are -0.517 ± 0.064 and -0.314 ± 0.081.
On the same counts, the results for GCUUAGCAAUAUUACGAAGG are -0.605 ± 0.12 and -0.64 ± 0.21.
On the same counts, the results for GGCAAGCAAUAUUACGUGGA are -1.28 ± 0.077 and -0.277 ± 0.073.
For UAGCAGCAAUAUUACGAGUA, the “self-splicing fitness (ln)” value runs as follows: (30 °C) -1.39 ± 0.14; (37 °C) -0.225 ± 0.14.
On the same counts, the results for GGGUAGCAAUAUUACGGUAC are -2.04 ± 0.12 and -0.23 ± 0.15.
For GACUAGCAAUAUUACGAGCC, the “self-splicing fitness (ln)” value is -1.28 ± 0.17 (30 °C) and -0.877 ± 0.26 (37 °C).
In the same order, the values of CCGGAGCAAUAUUACGUGUU are -3.46 ± 0.24 and -2.01 ± 0.19.
Take CUGCAGCAAUAUUACGUAUG: the “self-splicing fitness (ln)” value is, setting by setting: (30 °C) -1.27 ± 0.091; (37 °C) -1.19 ± 0.12.
As to UUAAAGCAAUAUUACGACGC, the “self-splicing fitness (ln)” value by setting is: (30 °C) -0.776 ± 0.077; (37 °C) 0.177 ± 0.11.
In the case of UGUUAGCAAUAUUACGGAUA, the “self-splicing fitness (ln)” value is -1.36 ± 0.13 (30 °C) and -1.45 ± 0.12 (37 °C).
In the same order, the values of AGACAGCAAUAUUACGUUUG are -3.34 ± 0.11 and -1.22 ± 0.086.
In the same order, the values of ACCGAGCAAUAUUACGAUCU are -1.66 ± 0.14 and -0.405 ± 0.15.
In the same order, the values of UCCCAGCAAUAUUACGACGA are -0.00629 ± 0.056 and 0.0828 ± 0.065.
Regarding UUCAAGCAAUAUUACGGAGA, the “self-splicing fitness (ln)” value is -1.55 ± 0.18 (30 °C) and -1.32 ± 0.19 (37 °C).
In the same order, the values of CUCAAGCAAUAUUACGGAAG are -1.84 ± 0.11 and -0.365 ± 0.12.
Regarding CGCUAGCAAUAUUACGGAUA, the “self-splicing fitness (ln)” value is -2.99 ± 0.17 (30 °C) and -2.14 ± 0.22 (37 °C).
Regarding UUCAAGCAAUAUUACGACAU, the “self-splicing fitness (ln)” value is -1.614 ± 0.014 (30 °C) and -0.69 ± 0.033 (37 °C).
In the same order, the values of CGGCAGCAAUAUUACGGGGG are -3 ± 0.13 and -1.86 ± 0.16.
GGUGAGCAAUAUUACGGGCU: the “self-splicing fitness (ln)” value by setting is: (30 °C) -2.81 ± 0.19; (37 °C) -2.67 ± 0.44.
AGGCAGCAAUAUUACGAUAC: the “self-splicing fitness (ln)” value is -2.06 ± 0.27 (30 °C) and -1.42 ± 0.26 (37 °C).
On the same counts, the results for GAAGAGCAAUAUUACGCAGA are -2.65 ± 0.32 and -2.73 ± 0.41.
On the same counts, the results for UUGCAGCAAUAUUACGAUAG are -0.692 ± 0.079 and 0.225 ± 0.11.
For the sequence GGAUAGCAAUAUUACGUUUC, the “self-splicing fitness (ln)” value (37 °C) was -1.84 ± 0.41.
On to AGCAAGCAAUAUUACGGGUA, for which the “self-splicing fitness (ln)” value (30 °C) is -1.32 ± 0.081 and the “self-splicing fitness (ln)” value (37 °C) was -0.594 ± 0.09.
As to GGUCAGCAAUAUUACGACGC, the “self-splicing fitness (ln)” value is -0.817 ± 0.13 (30 °C) and -0.318 ± 0.18 (37 °C).
In the same order, the values of GUAAAGCAAUAUUACGUCCA are -0.574 ± 0.088 and 0.0855 ± 0.12.
